Columns and labels:
[1] = system: peripheral blood mononuclear cells (PBMC); assay: RESTORE cytokine release assay in absence of TCR stimulation; format: cell-based, human; set-up: IFNγ: unit not given beside the values
Experimental: The ability of variant CD80-Fc fusion proteins to promote cytokine release in the absence of TCR stimulation was assessed in the RESTORE (RESetting T cells to Original Reactivity) assay (Römer et al, Blood, 2011). Freshly isolated peripheral blood mononuclear cells (PBMC) from whole blood of several healthy donors were cultured for 48 hours at […] within RPMI1640 media supplemented with 10% autologous plasma, 10 mM HEPES, 1× GlutaMAX, 1× PenStrep, beta2-mercaptoethanol, NEAA and sodium pyruvate. Following the 48-hour incubation, PBMC were pelleted and resuspended at a final concentration of 10^6/ml with indicated soluble drug. Treatment was allowed for 48 hours then supernatant was harvested and assessed in IL-2 and IFNγ ELISA according to manufacturer's protocol (BioLegend).
Positive controls included CD28 superagonist anti-CD28 clone TGN1412 as IgG1 and IgG4 isotypes and anti-CD3. […] Values shown are the average of 3 technical replicates. D=Donor.

[2] = Thermal stability by Differential Scanning calorimetry (DSC); format: physicochemical
Experimental: There is a correlation between the thermal stability of a protein with the overall stability of the protein. Enhanced thermal stability often provides improved manufacturability and longer shelf life/stability. Thermal stability of variant CD80-Fc fusion proteins was assessed by Differential Scanning calorimetry (DSC). Variant CD80-Fc fusion proteins were analyzed using a MicroCal VP-DSC instrument. […] Tables 8-10 show the first thermal transition temperature (Tm1) of CD80-Fc fusion proteins and the enhanced thermal stability of variant CD80-Fc fusion proteins compared to CD80-WT-Fc fusion proteins.

[3] = system: Renca murine renal carcinoma tumor cells; assay: Renca murine renal carcinoma model; format: in vivo, mouse; settings: for % tumor growth inhibition: Day 18
Experimental: Renca murine renal carcinoma tumor cells (1 million) were subcutaneously implanted in the hind flank of female Balb/c mice. Five days after tumor implantation, PBS vehicle control or variant CD80-Fc fusion proteins were dosed intravenously at 0.3 and 1 mg/kg (on Day 0 and Day 3) or 3 mg/kg (Day 0, Day 3 and Day 6). Tumor volume was determined by caliper measurements obtained in 2 dimensions and calculated as width^2×length/2. Error bars are depicted as ±SEM.
Pharmacodynamic (PD) modulation with variant CD80-Fc fusion proteins was assessed by measuring tumor-reactive T cells in the spleen using IFNγ ELIspot. Single-cell suspensions were generated from dissociated spleens taken at Day 9 after the first dose of CD80-Fc. Splenocytes were incubated with irradiated tumor cells overnight at 37° C., and the number of IFNγ-producing spots were measured using the IFNγ ELIspot Kit (BD Biosciences #551083).
Cytotoxic CD8^+ T cells are responsible for killing cancer cells and the measurement of CD8^+ T cells that have infiltrated tumors commonly correlates with efficacy for immune-oncology therapies. For all in vivo studies, tumors were collected ˜1 week after the first dose and dissociated by mincing, followed by incubation in an enzymatic digestion cocktail and homogenization. The resulting cell suspension was filtered and washed, and single cells were stained with antibodies to CD45, CD8, and a viability dye to detect tumor-infiltrating lymphocytes (TILs) by flow cytometry. Data were acquired on a BD LSRFortessa flow cytometer or a Cytek Aurora spectral flow cytometer. Table 31 and FIG. 18 show the amount of tumor-infiltrating CD8+ T cells expressed as a percentage of total immune cells (CD45+). Each value is the average of n=4 mice per group. Treatment with all variant CD80-Fc fusion proteins led to increase in CD8+ TILs in various tumor models.

## CD80-K89D-D90K-T28V-T57V-Fc: non-cysteine stabilized variant CD80-Fc fusion protein (K89D, D90K, T28V, T57V)
[1]; Table 21, D132, 1.9 μg/ml
  IL-2: 0.0
[1]; Table 21, D132, 5.6 μg/ml
  IL-2: 0.3
[1]; Table 21, D132, 16.7 μg/ml
  IL-2: 0.7
[1]; Table 21, D132, 50 μg/ml
  IL-2: 3.7
[1]; Table 21, D149, 1.9 μg/ml
  IL-2: 0.0
[1]; Table 21, D149, 5.6 μg/ml
  IL-2: 0.0
[1]; Table 21, D149, 16.7 μg/ml
  IL-2: 3.7
[1]; Table 21, D149, 50 μg/ml
  IL-2: 0.3
[1]; Table 21, D379, 1.9 μg/ml
  IL-2: 2.3
[1]; Table 21, D379, 5.6 μg/ml
  IL-2: 0.0
[1]; Table 21, D379, 16.7 μg/ml
  IL-2: 0.0
[1]; Table 21, D379, 50 μg/ml
  IL-2: 0.0
[1]; Table 21, D399, 1.9 μg/ml
  IL-2: 0.0
[1]; Table 21, D399, 5.6 μg/ml
  IL-2: 0.0
[1]; Table 21, D399, 16.7 μg/ml
  IL-2: 0.0
[1]; Table 21, D399, 50 μg/ml
  IL-2: 0.0
[1]; Table 21, D417, 1.9 μg/ml
  IL-2: 0.0
[1]; Table 21, D417, 5.6 μg/ml
  IL-2: 0.0
[1]; Table 21, D417, 50 μg/ml
  IL-2: 0.0
[1]; Table 21, D518, 1.9 μg/ml
  IL-2: 1.3
[1]; Table 21, D518, 5.6 μg/ml
  IL-2: 0.3
[1]; Table 21, D518, 16.7 μg/ml
  IL-2: 0.0
[1]; Table 21, D518, 50 μg/ml
  IL-2: 3.0
[1]; Table 22, D132, 1.9 μg/ml
  IFNγ: 0.0
[1]; Table 22, D132, 5.6 μg/ml
  IFNγ: 0.0
[1]; Table 22, D132, 16.7 μg/ml
  IFNγ: 41.3
[1]; Table 22, D132, 50 μg/ml
  IFNγ: 0.0
[1]; Table 22, D149, 1.9 μg/ml
  IFNγ: 0.0
[1]; Table 22, D149, 5.6 μg/ml
  IFNγ: 0.0
[1]; Table 22, D149, 16.7 μg/ml
  IFNγ: 0.0
[1]; Table 22, D149, 50 μg/ml
  IFNγ: 12.3
[1]; Table 22, D379, 1.9 μg/ml
  IFNγ: 2.0
[1]; Table 22, D379, 5.6 μg/ml
  IFNγ: 0.0
[1]; Table 22, D379, 50 μg/ml
  IFNγ: 0.0
[1]; Table 22, D399, 1.9 μg/ml
  IFNγ: 0.0
[1]; Table 22, D399, 5.6 μg/ml
  IFNγ: 0.0
[1]; Table 22, D399, 16.7 μg/ml
  IFNγ: 0.0
[1]; Table 22, D399, 50 μg/ml
  IFNγ: 13.7
[1]; Table 22, D417, 1.9 μg/ml
  IFNγ: 0.0
[1]; Table 22, D417, 5.6 μg/ml
  IFNγ: 94.3
[1]; Table 22, D417, 16.7 μg/ml
  IFNγ: 0.0
[1]; Table 22, D417, 50 μg/ml
  IFNγ: 0.0
[1]; Table 22, D518, 1.9 μg/ml
  IFNγ: 0.0
[1]; Table 22, D518, 5.6 μg/ml
  IFNγ: 0.0
[1]; Table 22, D518, 16.7 μg/ml
  IFNγ: 0.0
[1]; Table 22, D518, 50 μg/ml
  IFNγ: 0.0
[2]; Glu pH 4.5
  DSC Tm1: 65.11 ± 0.23 °C
[2]; His pH 5.8
  DSC Tm1: 68.57 ± 0.74 °C
[2]; PBS
  DSC Tm1: 63.70 ± 0.07 °C
[2]; Tris pH 7.5
  DSC Tm1: 66.94 ± 1.6 °C

## CD80-D90Q-Fc: variant CD80 ECD (D90Q) fused to human IgG1 Fc
[1]; Table 20, D222, 1 μg/ml
  IFNγ: 3.3
[1]; Table 20, D222, 10 μg/ml
  IFNγ: 4.0
  IL-2: 9.0
[1]; Table 20, D281, 1 μg/ml
  IFNγ: 3.3
  IL-2: 2.3
[1]; Table 20, D281, 10 μg/ml
  IFNγ: 3.3
  IL-2: 2.3
[1]; Table 20, D462, 1 μg/ml
  IFNγ: 8.3
  IL-2: 1.7
[1]; Table 20, D462, 10 μg/ml
  IFNγ: 10.3
  IL-2: 1.7
[1]; Table 20, D547, 1 μg/ml
  IFNγ: 3.3
  IL-2: 9.0
[1]; Table 20, D547, 10 μg/ml
  IFNγ: 7.7
  IL-2: 3.3
[2]; PBS
  DSC Tm1: 59.83 ± 0.08 °C
[3]; 0.3 mg/kg
  Number of tumor-free mice: 4/10
  % tumor growth inhibition: 81.4%
[3]; 0.3 mg/kg IV, Day 0 and 3
  Day 18 tumor volume: 248.2 ± 126.1 mm^3
[3]; 1 mg/kg
  Number of tumor-free mice: 4/10
  % tumor growth inhibition: 89.6%
[3]; 1 mg/kg IV, Day 0 and 3
  Day 18 tumor volume: 157.6 ± 64.2 mm^3
[3]; 3 mg/kg
  Number of tumor-free mice: 8/10
  % tumor growth inhibition: 97.1%
[3]; 3 mg/kg IV, Day 0, 3 and 6
  Day 18 tumor volume: 72.0 ± 41.6 mm^3
[3]; 3 mg/kg, spleen Day 9, average of n = 4 mice
  # IFNγ-producing spots (splenic tumor-reactive T cells): 334.75
[3]; Renca, 3 mg/kg, ~1 week after first dose, n=4
  CD8^+ T cell infiltrates (% CD45): 24.2 % CD45

Reference: US20240209061A1, “FUSION PROTEINS AND USES THEREOF” (Pfizer Inc., priority 2020, published 2024)
